The values below come from paper PMC9669668.

For assay [1], the target named is nucleotide-binding domain of Hsp70 (Hsp70 NBD, aa 1–382) (human) (UniProt P0DMV8). As to the kind of experiment: ITC.
The target is the same in assay [2]. Put plainly: ITC. The source holds these as a separate data set. In general terms: Isothermal titration calorimetry measures the heat released or taken up as one component is titrated into another.

Where two headings read alike, the source gives them in different places.

UniProt P0DMV8, sequence (P0DMV8 1-382): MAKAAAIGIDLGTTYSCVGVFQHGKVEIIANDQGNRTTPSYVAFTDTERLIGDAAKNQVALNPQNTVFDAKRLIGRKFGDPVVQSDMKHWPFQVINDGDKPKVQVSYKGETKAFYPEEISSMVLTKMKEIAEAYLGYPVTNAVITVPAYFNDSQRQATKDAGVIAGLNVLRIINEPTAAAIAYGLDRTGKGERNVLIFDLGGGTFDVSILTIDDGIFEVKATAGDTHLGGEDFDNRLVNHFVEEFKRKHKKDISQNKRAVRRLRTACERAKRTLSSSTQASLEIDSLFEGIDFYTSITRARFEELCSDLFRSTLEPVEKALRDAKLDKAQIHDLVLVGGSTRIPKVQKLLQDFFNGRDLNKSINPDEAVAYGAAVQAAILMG

Broadly, the Kd is the concentration at which binding is half-saturated. The term stoichiometry N denotes a count of units in the complex or per binding partner. Consider “FAF1 (aa 1–171) (from UniProt Q9UNN5 1-171) (domain or fragment)”, for which the dissociation constant (Kd) stood at 15.9 µM in assay [1] and 56.5 µM in assay [2]. This substance also displayed a stoichiometry N in assay [1] of 1.

For “FAF1 L-UBL1 (aa 91–171) (from UniProt Q9UNN5 91-171) (domain or fragment)”, the dissociation constant Kd in assay [1] and in assay [2] was 3.1 µM throughout. The substance also yielded a stoichiometry N in assay [1] of 1.
